Assay in all cases: rapid-quench phosphotransfer kinetics
Assay [1] addresses T1, SSK1 response regulator (receiver) domain, SSK1-R2 (S. cerevisiae, UniProt Q07084 495-712).
T1 sequence (looked up): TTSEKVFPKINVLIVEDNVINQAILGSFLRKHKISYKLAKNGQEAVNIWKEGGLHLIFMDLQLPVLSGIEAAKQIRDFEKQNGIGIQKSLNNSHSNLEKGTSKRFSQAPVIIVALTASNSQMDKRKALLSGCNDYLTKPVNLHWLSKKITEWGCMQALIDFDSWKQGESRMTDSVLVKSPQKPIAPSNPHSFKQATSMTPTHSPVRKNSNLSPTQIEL

In assay [2] the target is T1, SSK1 response regulator (receiver) …. This is another data set of the same source.
For assay [3] the target is unchanged. This is another data set of the same source.
The target is the same in assay [4]. This is another data set of the same source.
For assay [5] the target is unchanged. This is another data set of the same source.
For assay [6] the target is unchanged. The source holds these as a separate data set.
For assay [7] the target is unchanged. This is another data set of the same source.
The target is the same in assay [8]. This is another data set of the same source.
For assay [9] the target is unchanged. The source holds these as a separate data set.
Assay [10] shares this target. This is another data set of the same source.
In assay [11] the target is T2, YPD1, histidine-containing phosphotransfer (HPt) protein (S. cerevisiae, UniProt Q07688 1-167).
T2 sequence (looked up): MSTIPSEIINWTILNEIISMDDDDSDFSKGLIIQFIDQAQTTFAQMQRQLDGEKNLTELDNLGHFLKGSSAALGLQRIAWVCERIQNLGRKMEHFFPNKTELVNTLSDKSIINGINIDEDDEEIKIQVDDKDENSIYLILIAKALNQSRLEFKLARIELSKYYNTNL

For assay [12], the target named is T2, YPD1, histidine-containing …. The source holds these as a separate data set.
For assay [13] the target is unchanged. The source holds these as a separate data set.
Assay [14] has the same target. This is another data set of the same source.
For assay [15] the target is unchanged. The source holds these as a separate data set.
Assay [16] shares this target. The source holds these as a separate data set.
For assay [17] the target is unchanged. This is another data set of the same source.
The target is the same in assay [18]. The source holds these as a separate data set.
The target is the same in assay [19]. This is another data set of the same source.
Assay [20] has the same target. This is another data set of the same source.

Kd data for two molecules are collected here from article PMC2753885 (Biochemistry, 2009).

Where two headings read alike, the source gives them in different places.

B1: phosphorylated YPD1, YPD1∼P (natural protein, S. cerevisiae, UniProt Q07688 1-167, looked up)
chain: T2 sequence (looked up)
modifications: phosphorylated (32P) by phosphotransfer from GST-SLN1-HK-R1; residue not given
Regarding B1, the Kd in assay [1] was found to be 11.5 µM; in [2], 2200 nM; in assay [3], 4.3 µM; in [4] it was 4.3 µM; in [5], 4 µM; in [6], 2100 nM. The Kd in [7] stood at 1400 nM; in assay [8] it was 3.8 µM; in [9], 4.4 µM; in assay [10], 3000 nM.

B2: phosphorylated SLN1 response regulator (receiver) domain, SLN1-R1∼P (domain or fragment, S. cerevisiae, UniProt P39928 1084-1220, looked up)
chain: NETSVKILVVEDNHVNQEVIKRMLNLEGIENIELACDGQEAFDKVKELTSKGENYNMIFMDVQMPKVDGLLSTKMIRRDLGYTSPIVALTAFADDSNIKECLESGMNGFLSKPIKRPKLKTILTEFCAAYQGKKNNK
modifications: phosphorylated (32P) by phosphotransfer from phospho-SLN1-HK; residue not printed for this domain
B2: the Kd in [11] worked out at 18 µM; in [12] it was 2300 nM; in [13] it was 2300 nM; in assay [14] it was 2700 nM; in assay [15], 10 µM; in assay [16] it was 4.6 µM. The Kd in assay [17] came to 2600 nM; in [18] it was 2800 nM; in assay [19], 3.2 µM; in [20] it was 6.2 µM.

One may read the Kd as a measure of binding affinity in units of concentration. Low readings indicate higher affinity, high ones lower affinity.
